Test results taken from patent publication US20100143376A1 (RIBOVAX BIOTECHNOLOGIES S A, published 2010).

Biological target: T1, Bovine Serum Albumin (bovine, UniProt P02769 25-607)
T1 construct: also called BSA
Assay: ELISA, antigen coated on plate, phage-displayed Fab

T1 sequence (P02769 25-607 limits assumed): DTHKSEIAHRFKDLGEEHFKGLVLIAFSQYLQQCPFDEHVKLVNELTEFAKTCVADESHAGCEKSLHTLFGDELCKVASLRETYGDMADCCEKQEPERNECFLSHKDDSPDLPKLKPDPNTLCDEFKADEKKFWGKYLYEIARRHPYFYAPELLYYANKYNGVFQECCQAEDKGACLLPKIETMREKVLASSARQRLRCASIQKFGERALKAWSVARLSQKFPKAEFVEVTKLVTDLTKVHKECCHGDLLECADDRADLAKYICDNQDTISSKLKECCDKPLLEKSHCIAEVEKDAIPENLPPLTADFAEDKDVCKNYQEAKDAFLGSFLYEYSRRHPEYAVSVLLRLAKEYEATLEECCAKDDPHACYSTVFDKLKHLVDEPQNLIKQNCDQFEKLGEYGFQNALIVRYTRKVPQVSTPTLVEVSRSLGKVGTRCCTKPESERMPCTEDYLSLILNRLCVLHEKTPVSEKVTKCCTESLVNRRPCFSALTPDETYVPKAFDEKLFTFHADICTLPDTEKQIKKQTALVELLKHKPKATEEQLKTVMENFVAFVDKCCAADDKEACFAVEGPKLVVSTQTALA

B1: human Fab DDF-RuV1 (Fab, V domains shown)
VH: LEQSGAEVKKPGENLKISCEASGYNFVNHWIGWVRQMPGRGLEWMGRIYPGDSETRFSPSFQGQVTISVDKTLSTASLQWNSLKTSDSATYYCVTLGRWSSWQGGALSWGQGTRVIVSS
VL: ELTQSPDSLAVSLGERATINCKSSQSILSTSKNKNYLAWYQQKPGQPPKLLIYWASTREDGVPDRFSGSGAGTDFSLTISSLQAEDVAVYYCQQRRSWPPTFGQGTKLEIKR
B1: no binding.

B2: human Fab DDF-RuV2 (Fab, V domains shown)
VH: LESGGGVVQPGRSLRLSCAASGFTFSTYGMHWVRQAPGKGLEWVAVVSYDGTKEYYSDSVKGRFTISRDNSKKMVYLQMNSLRAEDTAVYYCAKEPPRRGFYWYFDYWGQGTLVTVSS
VL: ELTQSPSSLSASVGDRVTITCRASQDISNYLAWFQQRPGKVPNLLIYAASTLQSGVPSRFSGSGSGTEFTLTISSLQPEDGASYYCQKYDGAPWTFGQGTKVEIKR
B2: no binding.
